# Experimental data from US20170056486A1.
# Molecular target: HLA-A*24 (human)
# Test: UV-exchange ELISA (anti-b2m); yield 50%-75%
row,Binder,peptide exchange yield [%]
1,VYAIFRILL,50 to 75
2,GYISNGELF,50 to 75
3,TYADIGGLDNQI,50 to 75
4,VYLPKIPSW,50 to 75
5,SYLVIHERI,50 to 75
6,LYLPVHYGF,50 to 75
7,VYTKALSSL,50 to 75
8,SYVKVLHHL,50 to 75
9,DYLKDPVTI,50 to 75
10,IYGEKLQFIF,50 to 75
11,EYNEVANLF,50 to 75
12,VFGKSAYLF,50 to 75
13,QYPYLQAFF,50 to 75
14,AYAQLGYLL,50 to 75
15,LYPQLFVVL,50 to 75
16,VYFEGSDFKF,50 to 75
17,VFDTSIAQLF,50 to 75
18,KYTDWTEFL,50 to 75
19,VYPAEQPQI,50 to 75
20,KYGNFIDKL,50 to 75
21,VYGEPRELL,50 to 75
22,VYKDSIYYI,50 to 75
23,SFTKTSPNF,50 to 75
24,EYNSDLHQF,50 to 75

row,Binder,peptide exchange yield [%]
1,NYLGGTSTI,50 to 75
2,GYAFTLPLF,50 to 75
3,NYAFLHRTL,50 to 75
4,TYPSQLPSL,50 to 75
5,IYGFFNENF,50 to 75
6,VYNEQIRDLL,50 to 75
7,KYLESSATF,50 to 75
8,QYGGDLTNTF,50 to 75
9,KYQNVKHNL,50 to 75
10,RFPVQGTVTF,50 to 75
11,VYTHEVVTL,50 to 75
12,VWLPASVLF,50 to 75
13,VHFEDTGKTLLF,50 to 75
14,EYNSDLHQFF,50 to 75
15,RFIGIPNQF,50 to 75
16,KYLNENQLSQL,50 to 75
17,FYTFPFQQL,50 to 75
18,VYQKIILKF,50 to 75
19,RYFKGDYSI,50 to 75
20,IYVTGGHLF,50 to 75
21,NYSPGLVSLIL,50 to 75
22,YYLGSGRETF,50 to 75
23,VYAEVNSL,50 to 75

# Results, then the binder that gave them:
row,peptide exchange yield [%],Binder
1,50 to 75,SYTSVLSRL
2,50 to 75,RYILENHDF
3,50 to 75,IYNPNLLTASKF
4,50 to 75,VYVIEPHSMEF
5,50 to 75,EYQEIFQQL
6,50 to 75,TYGKIDLGF
7,50 to 75,YYSEVPVKL
8,50 to 75,FYIPHVPVSF
9,50 to 75,YYSQESKVLYL
10,50 to 75,IFIDNSTQPLHF
11,50 to 75,IYAPTLLVF
12,50 to 75,SYLELANTL
13,50 to 75,SYLPAIWLL
14,50 to 75,KYQYVLNEF
15,50 to 75,YYFFVQEKI
16,50 to 75,IFHEVPLKF
17,50 to 75,LYSVIKEDF
18,50 to 75,IYLEHTESI
19,50 to 75,QYLELAHSL
20,50 to 75,TYSNSAFQYF
21,50 to 75,NYLVDPVTI
22,50 to 75,TFDGHGVFF
23,50 to 75,QYSIISNVF
24,50 to 75,KYVGQLAVL
25,50 to 75,VFSPDGHLF
26,50 to 75,KYTDYILKI
27,50 to 75,VYVGDALLHAI
28,50 to 75,SYLTQHQRI
